{"source": "the supplement of paper PMC9233669", "key": {"[1]": {"test_system": "biotinyl-Val-oxazolone", "assay": "self-aminoacylation, catalytic enhancement (BVO) (fold over background); higher = more active; k-Seq, kA / k0A0; sequences stand for … in GGGAAUGGAUCCACAUCUACGAAUUC…UUCACUGCAGACUUGACGAAGCUG", "summary_of_the_method": "(§1)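 Mutagenized RNA pools (0.43 μM; 21-nt variable region) were treated with 2–1250 μM of each biotinyl-aminoacyl-oxazolone. Conditions were 50 μL HEPES/NaCl/KCl/MgCl2/CaCl2 buffer, 5% acetonitrile, pH 6.9–7.0, room temperature, 90 minutes. Catalytic enhancement, the median kA relative to the uncatalyzed rate, was derived from streptavidin capture, qPCR and Illumina sequencing.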"}, "[2]": {"test_system": "biotinyl-Phe-oxazolone", "assay": "self-aminoacylation, catalytic enhancement (BFO) (fold over background); higher = more active; k-Seq, kA / k0A0; sequences stand for … in GGGAAUGGAUCCACAUCUACGAAUUC…UUCACUGCAGACUUGACGAAGCUG", "summary_of_the_method": "as §1"}, "[3]": {"test_system": "biotinyl-Met-oxazolone", "assay": "self-aminoacylation, catalytic enhancement (BMO) (fold over background); higher = more active; k-Seq, kA / k0A0; sequences stand for … in GGGAAUGGAUCCACAUCUACGAAUUC…UUCACUGCAGACUUGACGAAGCUG", "summary_of_the_method": "as §1"}, "[4]": {"test_system": "biotinyl-Ile-oxazolone", "assay": "self-aminoacylation, catalytic enhancement (BIO) (fold over background); higher = more active; k-Seq, kA / k0A0; sequences stand for … in GGGAAUGGAUCCACAUCUACGAAUUC…UUCACUGCAGACUUGACGAAGCUG", "summary_of_the_method": "as §1"}, "[5]": {"test_system": "biotinyl-Leu-oxazolone", "assay": "self-aminoacylation, catalytic enhancement (BLO) (fold over background); higher = more active; k-Seq, kA / k0A0; sequences stand for … in GGGAAUGGAUCCACAUCUACGAAUUC…UUCACUGCAGACUUGACGAAGCUG", "summary_of_the_method": "as §1"}, "[6]": {"test_system": "biotinyl-Trp-oxazolone", "assay": "self-aminoacylation, catalytic enhancement (BWO) (fold over background); higher = more active; k-Seq, kA / k0A0; sequences stand for … in GGGAAUGGAUCCACAUCUACGAAUUC…UUCACUGCAGACUUGACGAAGCUG", "summary_of_the_method": "as §1"}}, "note": "Fewer inactive variants are shown than the library holds."}
{"sequence": "AUUCACCUAGUUCAGCGGGUG [Fam2.2 aminoacylation ribozyme variant]", "values": [{"measurement": "self-aminoacylation", "setting": "[1]", "value": 2.28}, {"measurement": "self-aminoacylation", "setting": "[2]", "value": 15.9}, {"measurement": "self-aminoacylation", "setting": "[3]", "value": 2.76}, {"measurement": "self-aminoacylation", "setting": "[4]", "value": 2.07}, {"measurement": "self-aminoacylation", "setting": "[5]", "value": 3.34}, {"measurement": "self-aminoacylation", "setting": "[6]", "value": 2.62}]}
{"sequence": "AUUCACCUAGUUCAUCGGCUG [Fam2.2 aminoacylation ribozyme variant]", "values": [{"measurement": "self-aminoacylation", "setting": "[1]", "value": 1.55}, {"measurement": "self-aminoacylation", "setting": "[2]", "value": 4.73}, {"measurement": "self-aminoacylation", "setting": "[3]", "value": 1.27}, {"measurement": "self-aminoacylation", "setting": "[4]", "value": 1.36}, {"measurement": "self-aminoacylation", "setting": "[5]", "value": 1.57}, {"measurement": "self-aminoacylation", "setting": "[6]", "value": 1.03}]}
{"sequence": "AUUCACCUAGUUCAUGGGGUG [Fam2.2 aminoacylation ribozyme variant]", "values": [{"measurement": "self-aminoacylation", "setting": "[1]", "value": 4.43}, {"measurement": "self-aminoacylation", "setting": "[2]", "value": 66}, {"measurement": "self-aminoacylation", "setting": "[3]", "value": 8.55}, {"measurement": "self-aminoacylation", "setting": "[4]", "value": 4.31}, {"measurement": "self-aminoacylation", "setting": "[5]", "value": 10.6}, {"measurement": "self-aminoacylation", "setting": "[6]", "value": 7.05}]}
{"sequence": "AUUCACCUAUGACAUCGGGUG [Fam2.2 aminoacylation ribozyme variant]", "values": [{"measurement": "self-aminoacylation", "setting": "[1]", "value": 1.73}, {"measurement": "self-aminoacylation", "setting": "[2]", "value": 22.3}, {"measurement": "self-aminoacylation", "setting": "[3]", "value": 3.24}, {"measurement": "self-aminoacylation", "setting": "[4]", "value": 2.25}, {"measurement": "self-aminoacylation", "setting": "[5]", "value": 3.63}, {"measurement": "self-aminoacylation", "setting": "[6]", "value": 3.44}]}
{"sequence": "AUUCACCUAUGUCAUCCGGUG [Fam2.2 aminoacylation ribozyme variant]", "values": [{"measurement": "self-aminoacylation", "setting": "[1]", "value": 3.51}, {"measurement": "self-aminoacylation", "setting": "[2]", "value": 37.6}, {"measurement": "self-aminoacylation", "setting": "[3]", "value": 5.26}, {"measurement": "self-aminoacylation", "setting": "[4]", "value": 3.78}, {"measurement": "self-aminoacylation", "setting": "[5]", "value": 7.19}, {"measurement": "self-aminoacylation", "setting": "[6]", "value": 5.69}]}
{"sequence": "AUUCACCUAUGUCAUCGCGUG [Fam2.2 aminoacylation ribozyme variant]", "values": [{"measurement": "self-aminoacylation", "setting": "[1]", "value": 4.89}, {"measurement": "self-aminoacylation", "setting": "[2]", "value": 65.3}, {"measurement": "self-aminoacylation", "setting": "[3]", "value": 8.26}, {"measurement": "self-aminoacylation", "setting": "[4]", "value": 4.86}, {"measurement": "self-aminoacylation", "setting": "[5]", "value": 10.4}, {"measurement": "self-aminoacylation", "setting": "[6]", "value": 7.34}]}
{"sequence": "AUUCACCUAUGUCAUCGGAUG [Fam2.2 aminoacylation ribozyme variant]", "values": [{"measurement": "self-aminoacylation", "setting": "[1]", "value": 0.758}, {"measurement": "self-aminoacylation", "setting": "[2]", "value": 0.61}, {"measurement": "self-aminoacylation", "setting": "[3]", "value": 0.581}, {"measurement": "self-aminoacylation", "setting": "[4]", "value": 0.826}, {"measurement": "self-aminoacylation", "setting": "[5]", "value": 0.606}, {"measurement": "self-aminoacylation", "setting": "[6]", "value": 0.502}]}
{"sequence": "AUUCACCUAUGUCAUCGGGCG [Fam2.2 aminoacylation ribozyme variant]", "values": [{"measurement": "self-aminoacylation", "setting": "[1]", "value": 2.13}, {"measurement": "self-aminoacylation", "setting": "[2]", "value": 10.4}, {"measurement": "self-aminoacylation", "setting": "[3]", "value": 2.79}, {"measurement": "self-aminoacylation", "setting": "[4]", "value": 2.22}, {"measurement": "self-aminoacylation", "setting": "[5]", "value": 2.87}, {"measurement": "self-aminoacylation", "setting": "[6]", "value": 2.2}]}
{"sequence": "AUUCACCUAUGUCAUCGGGUG [Fam2.2 aminoacylation ribozyme variant]", "values": [{"measurement": "self-aminoacylation", "setting": "[1]", "value": 3.48}, {"measurement": "self-aminoacylation", "setting": "[2]", "value": 36.7}, {"measurement": "self-aminoacylation", "setting": "[3]", "value": 5.41}, {"measurement": "self-aminoacylation", "setting": "[4]", "value": 3.61}, {"measurement": "self-aminoacylation", "setting": "[5]", "value": 7.41}, {"measurement": "self-aminoacylation", "setting": "[6]", "value": 5.45}]}
{"sequence": "AUUCACCUCGGGCAUCGGGUG [Fam2.2 aminoacylation ribozyme variant]", "values": [{"measurement": "self-aminoacylation", "setting": "[1]", "value": 5.1}, {"measurement": "self-aminoacylation", "setting": "[2]", "value": 34.5}, {"measurement": "self-aminoacylation", "setting": "[3]", "value": 5.94}, {"measurement": "self-aminoacylation", "setting": "[4]", "value": 3.71}, {"measurement": "self-aminoacylation", "setting": "[5]", "value": 6.03}, {"measurement": "self-aminoacylation", "setting": "[6]", "value": 5.56}]}
{"sequence": "AUUCACCUCGGUCAUCGGAUG [Fam2.2 aminoacylation ribozyme variant]", "values": [{"measurement": "self-aminoacylation", "setting": "[1]", "value": 1}, {"measurement": "self-aminoacylation", "setting": "[2]", "value": 0.352}, {"measurement": "self-aminoacylation", "setting": "[3]", "value": 0.789}, {"measurement": "self-aminoacylation", "setting": "[4]", "value": 0.927}, {"measurement": "self-aminoacylation", "setting": "[5]", "value": 0.794}, {"measurement": "self-aminoacylation", "setting": "[6]", "value": 0.751}]}
{"sequence": "AUUCACCUCGGUCAUCGGGAG [Fam2.2 aminoacylation ribozyme variant]", "values": [{"measurement": "self-aminoacylation", "setting": "[1]", "value": 1.22}, {"measurement": "self-aminoacylation", "setting": "[2]", "value": 0.478}, {"measurement": "self-aminoacylation", "setting": "[3]", "value": 1.39}, {"measurement": "self-aminoacylation", "setting": "[4]", "value": 1.02}, {"measurement": "self-aminoacylation", "setting": "[5]", "value": 1.63}, {"measurement": "self-aminoacylation", "setting": "[6]", "value": 1.17}]}
{"sequence": "AUUCACCUCGGUCAUCGGGUU [Fam2.2 aminoacylation ribozyme variant]", "values": [{"measurement": "self-aminoacylation", "setting": "[1]", "value": 2.41}, {"measurement": "self-aminoacylation", "setting": "[2]", "value": 13.3}, {"measurement": "self-aminoacylation", "setting": "[3]", "value": 2.44}, {"measurement": "self-aminoacylation", "setting": "[4]", "value": 2.15}, {"measurement": "self-aminoacylation", "setting": "[5]", "value": 2.47}, {"measurement": "self-aminoacylation", "setting": "[6]", "value": 2.53}]}
